Assay results reported in paper PMC11417369, “DNA sequence and chromatin differentiate sequence-specific transcription factor binding in the human malaria parasite Plasmodium falciparum”.

T1: AP2-G D1 (Plasmodium falciparum, UniProt Q8I5I9 2123-2245)
T1 sequence: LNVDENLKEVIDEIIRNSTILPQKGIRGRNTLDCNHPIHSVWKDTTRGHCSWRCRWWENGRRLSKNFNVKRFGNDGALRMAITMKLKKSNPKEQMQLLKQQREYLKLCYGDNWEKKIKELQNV


Molecular target: T1, AP2-G D1
Test: gcPBM; about 25 ug protein; PBS, 1% milk, 0.2 mg/ml BSA, salmon testes DNA, 0.03% Triton X-100
Settings: tags: N-terminal GST (pGEX-4T-1), kept; label: surface-attached array probe

Binder	binding signal
XGTACX_site972 (dsDNA) DNA 1: GAAACAAAATTATTTTGTACATATGACTGTAGATAT DNA 2: ATATCTACAGTCATATGTACAAAATAATTTTGTTTC	11.2 ln median PBM intensity, better of two orientations
XGTACX_site3854 (dsDNA) DNA 1: AACCATTCTTCTAATTGTACATTGAAAAATCATGAT DNA 2: ATCATGATTTTTCAATGTACAATTAGAAGAATGGTT	11.1 ln median PBM intensity, better of two orientations
XGTACX_site7465 (dsDNA) DNA 1: TTTAATTCTTATATTTGTACAGATTCATAATTAAAT DNA 2: ATTTAATTATGAATCTGTACAAATATAAGAATTAAA	11.2 ln median PBM intensity, better of two orientations
XGTACX_negctrl_site499 (dsDNA) DNA 1: TTTTACTATGATATTTATATATCTATATATGTATAT DNA 2: ATATACATATATAGATATATAAATATCATAGTAAAA	9.32 ln median PBM intensity, better of two orientations
XGTACX_site1904 (dsDNA) DNA 1: TTGACATATAAGATATGTACTAATACACACACATAT DNA 2: ATATGTGTGTGTATTAGTACATATCTTATATGTCAA	11.2 ln median PBM intensity, better of two orientations
XGTACX_site1104 (dsDNA) DNA 1: ACCATATAATTTTTTTGTACATAATGATTTTTTTTT DNA 2: AAAAAAAAATCATTATGTACAAAAAAATTATATGGT	11.1 ln median PBM intensity, better of two orientations
XGTACX_negctrl_site84 (dsDNA) DNA 1: TTCAAAAAATAAAATAATAATATATATATAAATATA DNA 2: TATATTTATATATATATTATTATTTTATTTTTTGAA	9.17 ln median PBM intensity, better of two orientations
XGTACX_site8424 (dsDNA) DNA 1: TATTTTGTCATAGAACGTACTTATAAATATTTTTTT DNA 2: AAAAAAATATTTATAAGTACGTTCTATGACAAAATA	11.3 ln median PBM intensity, better of two orientations
XGTACX_site2105 (dsDNA) DNA 1: ATTAATTATTGTAATTGTACATTTTATATATATCCA DNA 2: TGGATATATATAAAATGTACAATTACAATAATTAAT	11.1 ln median PBM intensity, better of two orientations
XGTACX_site287 (dsDNA) DNA 1: AACAAAGAAAATACATGTACAAAAAATATTAACGAA DNA 2: TTCGTTAATATTTTTTGTACATGTATTTTCTTTGTT	11.2 ln median PBM intensity, better of two orientations
XGTACX_negctrl_site511 (dsDNA) DNA 1: ATGAAATCTTTAGAATATAGATGATGTTATTTAATT DNA 2: AATTAAATAACATCATCTATATTCTAAAGATTTCAT	9.15 ln median PBM intensity, better of two orientations
XGTACX_site1009 (dsDNA) DNA 1: AATGTATTTATTTTTTGTACATATCGTGTGTGTATT DNA 2: AATACACACACGATATGTACAAAAAATAAATACATT	11.2 ln median PBM intensity, better of two orientations
XGTACX_site8398 (dsDNA) DNA 1: TAAAAAATAAAATAATGTACATATGAATTATATATT DNA 2: AATATATAATTCATATGTACATTATTTTATTTTTTA	11.2 ln median PBM intensity, better of two orientations
XGTACX_site4444 (dsDNA) DNA 1: ATATAATATTGAGTTTGTACATATATATATGAAGAT DNA 2: ATCTTCATATATATATGTACAAACTCAATATTATAT	11.1 ln median PBM intensity, better of two orientations
XGTACX_site1856 (dsDNA) DNA 1: ATAAATTATAATAACTGTACAAAAATAATATATTCA DNA 2: TGAATATATTATTTTTGTACAGTTATTATAATTTAT	11.1 ln median PBM intensity, better of two orientations
XGTACX_site3331 (dsDNA) DNA 1: AAAAATTTTTTACATCGTACAGATATATATAATAAA DNA 2: TTTATTATATATATCTGTACGATGTAAAAAATTTTT	11.2 ln median PBM intensity, better of two orientations
XGTACX_site2156 (dsDNA) DNA 1: AATATATATATATATAGTACATATTTTTATTCATTA DNA 2: TAATGAATAAAAATATGTACTATATATATATATATT	11.1 ln median PBM intensity, better of two orientations
XGTACX_site6203 (dsDNA) DNA 1: AAAAAAAAAAAATAAAGTACTAAATAATACATTATA DNA 2: TATAATGTATTATTTAGTACTTTATTTTTTTTTTTT	11.2 ln median PBM intensity, better of two orientations
XGTACX_negctrl_site8 (dsDNA) DNA 1: TAAAACATGTTTTTATATATTATTATTATATTTATA DNA 2: TATAAATATAATAATAATATATAAAAACATGTTTTA	9.11 ln median PBM intensity, better of two orientations
XGTACX_site7313 (dsDNA) DNA 1: TATATACTTTATAAATGTACATATAATGTATTATTT DNA 2: AAATAATACATTATATGTACATTTATAAAGTATATA	11.3 ln median PBM intensity, better of two orientations
XGTACX_site611 (dsDNA) DNA 1: TAATTTCTTATGTATTGTACAAATAATATATGATAT DNA 2: ATATCATATATTATTTGTACAATACATAAGAAATTA	11.3 ln median PBM intensity, better of two orientations
XGTACX_negctrl_site478 (dsDNA) DNA 1: TACATATATATAATATATATATCATCATATTTTCTT DNA 2: AAGAAAATATGATGATATATATATTATATATATGTA	9.22 ln median PBM intensity, better of two orientations

Binder	binding signal
XGTACX_site8946 (dsDNA) DNA 1: ATTAATCCAAATGAATGTACTTAATAATGTAATTAT DNA 2: ATAATTACATTATTAAGTACATTCATTTGGATTAAT	11.2 ln median PBM intensity, better of two orientations
XGTACX_negctrl_site140 (dsDNA) DNA 1: ATCTTATATCGTAGAGATTTTTTTTTTTTTTCATTT DNA 2: AAATGAAAAAAAAAAAAAATCTCTACGATATAAGAT	9.22 ln median PBM intensity, better of two orientations
XGTACX_negctrl_site51 (dsDNA) DNA 1: AAAAATAAAAAATATAAAAATATAAAAATATAAAAA DNA 2: TTTTTATATTTTTATATTTTTATATTTTTTATTTTT	9.09 ln median PBM intensity, better of two orientations
XGTACX_negctrl_site79 (dsDNA) DNA 1: TACATGTATGTAATATGTTTTATTTTTTTCATCTCT DNA 2: AGAGATGAAAAAAATAAAACATATTACATACATGTA	9.12 ln median PBM intensity, better of two orientations
XGTACX_negctrl_site18 (dsDNA) DNA 1: TCATAAAAAGGAATCTTTAAGATATTTTATAAGCTC DNA 2: GAGCTTATAAAATATCTTAAAGATTCCTTTTTATGA	9.17 ln median PBM intensity, better of two orientations
XGTACX_site8520 (dsDNA) DNA 1: ATATGAAAAAGAACTTGTACTAAAGTGGCATATTAT DNA 2: ATAATATGCCACTTTAGTACAAGTTCTTTTTCATAT	11.3 ln median PBM intensity, better of two orientations
XGTACX_negctrl_site127 (dsDNA) DNA 1: TTTTTAAAAAAATTGATTCTTTTTCTTTTTTTTCTT DNA 2: AAGAAAAAAAAGAAAAAGAATCAATTTTTTTAAAAA	9.16 ln median PBM intensity, better of two orientations
XGTACX_negctrl_site344 (dsDNA) DNA 1: TACAAAAAAATAAATAATAAAAAAAAATATATATAA DNA 2: TTATATATATTTTTTTTTATTATTTATTTTTTTGTA	9.07 ln median PBM intensity, better of two orientations
XGTACX_negctrl_site442 (dsDNA) DNA 1: TATTTTATTTCAAATCTTAATAATTGTAATTCTTCA DNA 2: TGAAGAATTACAATTATTAAGATTTGAAATAAAATA	8.99 ln median PBM intensity, better of two orientations
XGTACX_negctrl_site234 (dsDNA) DNA 1: ATTATAACTAAATAAATGATATATAATATTTTATTT DNA 2: AAATAAAATATTATATATCATTTATTTAGTTATAAT	9.29 ln median PBM intensity, better of two orientations
XGTACX_site5075 (dsDNA) DNA 1: AAATGAAGATTTAAATGTACGAGAGGGTATACAAAT DNA 2: ATTTGTATACCCTCTCGTACATTTAAATCTTCATTT	11.2 ln median PBM intensity, better of two orientations
XGTACX_negctrl_site412 (dsDNA) DNA 1: AAAGGAGACAGAATAAGAATAAATATTATACATATA DNA 2: TATATGTATAATATTTATTCTTATTCTGTCTCCTTT	9.08 ln median PBM intensity, better of two orientations
XGTACX_negctrl_site404 (dsDNA) DNA 1: ATAAAATAAATATTTTGTTATTTATTTAATCTAATA DNA 2: TATTAGATTAAATAAATAACAAAATATTTATTTTAT	9.22 ln median PBM intensity, better of two orientations
XGTACX_site4343 (dsDNA) DNA 1: TTTATATACTATCAACGTACAAAAGTAATAAAAATA DNA 2: TATTTTTATTACTTTTGTACGTTGATAGTATATAAA	11.3 ln median PBM intensity, better of two orientations
XGTACX_site4080 (dsDNA) DNA 1: AATACAATTGAAAATTGTACTTTGTTTTTTATAAAT DNA 2: ATTTATAAAAAACAAAGTACAATTTTCAATTGTATT	11.3 ln median PBM intensity, better of two orientations
XGTACX_site7391 (dsDNA) DNA 1: TGTCAATCATATAAATGTACATTTTAAATGAGGTGT DNA 2: ACACCTCATTTAAAATGTACATTTATATGATTGACA	11.2 ln median PBM intensity, better of two orientations
XGTACX_site8441 (dsDNA) DNA 1: AATAATATCTGAAAATGTACATTTTATTATAAACAT DNA 2: ATGTTTATAATAAAATGTACATTTTCAGATATTATT	11.2 ln median PBM intensity, better of two orientations
XGTACX_site5536 (dsDNA) DNA 1: TAACACACTAAGAAAAGTACTGATTAATATAATTTT DNA 2: AAAATTATATTAATCAGTACTTTTCTTAGTGTGTTA	11.2 ln median PBM intensity, better of two orientations
XGTACX_site5843 (dsDNA) DNA 1: ATTTCAAAATATAGCTGTACAAAAAATGTAGATATA DNA 2: TATATCTACATTTTTTGTACAGCTATATTTTGAAAT	11.2 ln median PBM intensity, better of two orientations
XGTACX_site2716 (dsDNA) DNA 1: AAAACTTTCCATGTTTGTACATAAAATATAATAATT DNA 2: AATTATTATATTTTATGTACAAACATGGAAAGTTTT	11.3 ln median PBM intensity, better of two orientations
XGTACX_negctrl_site185 (dsDNA) DNA 1: AAACAACAAAAATGATATATATAAAATTTATAATAT DNA 2: ATATTATAAATTTTATATATATCATTTTTGTTGTTT	9.32 ln median PBM intensity, better of two orientations
